# Measured values: patent US20230203185A1 (ECO ANIMAL HEALTH, published 2023)
# Positions count from the first letter of the chain named.
# T1: pCD163-SRCR1-9-huFc (porcine, UniProt Q2VL90 47-1028, limits assumed)
# T1 construct: also called pCD163:SRCR1-9-Fc; pCD163SRCR1-9-Fc; not shown: human Fc (huFc)
# T1 sequence: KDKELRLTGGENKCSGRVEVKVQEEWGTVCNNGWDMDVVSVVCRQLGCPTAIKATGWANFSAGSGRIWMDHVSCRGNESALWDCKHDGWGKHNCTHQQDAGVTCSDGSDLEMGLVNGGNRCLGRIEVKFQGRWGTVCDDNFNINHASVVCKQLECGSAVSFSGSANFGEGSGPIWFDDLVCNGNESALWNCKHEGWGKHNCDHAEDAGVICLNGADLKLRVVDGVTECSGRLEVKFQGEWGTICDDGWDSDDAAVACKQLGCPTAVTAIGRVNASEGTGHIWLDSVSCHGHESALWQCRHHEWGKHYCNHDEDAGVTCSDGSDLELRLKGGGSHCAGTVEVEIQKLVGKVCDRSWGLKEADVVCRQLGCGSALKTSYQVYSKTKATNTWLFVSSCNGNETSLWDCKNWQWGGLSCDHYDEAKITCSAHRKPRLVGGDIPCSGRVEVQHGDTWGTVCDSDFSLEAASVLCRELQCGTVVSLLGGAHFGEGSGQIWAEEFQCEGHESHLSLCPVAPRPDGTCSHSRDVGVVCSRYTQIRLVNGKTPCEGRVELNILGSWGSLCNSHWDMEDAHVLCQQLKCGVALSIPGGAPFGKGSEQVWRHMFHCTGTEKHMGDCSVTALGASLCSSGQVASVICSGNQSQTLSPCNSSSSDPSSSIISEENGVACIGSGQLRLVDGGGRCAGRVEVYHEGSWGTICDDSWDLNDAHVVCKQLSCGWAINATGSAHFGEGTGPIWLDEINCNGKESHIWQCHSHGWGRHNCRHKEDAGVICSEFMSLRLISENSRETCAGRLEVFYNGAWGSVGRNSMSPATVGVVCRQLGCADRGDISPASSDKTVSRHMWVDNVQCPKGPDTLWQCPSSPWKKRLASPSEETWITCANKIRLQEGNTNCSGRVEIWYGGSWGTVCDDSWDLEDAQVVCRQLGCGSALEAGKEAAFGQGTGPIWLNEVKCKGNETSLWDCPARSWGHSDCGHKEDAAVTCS
# B1: VHH 002 (1B04) (VHH)
# VHH: QVQLVESGGGLVQAGGSLRLSCAASGLTFVTYSMGWFRQAPGKEREFVAAHRWSGSAYYAEHADSVEGRFTISRDYAKNMLYLQMNSLKHEDTAVYYCAAGVGSAAQYRYWGRGTQVTVSS
# notes: Llama single domain antibody; also called 76(#2); VHCDR3 76(#2); not shown: tags: c-myc tag in periplasmic extract (ELISA, FACS); FLAG and His tags in purified VHH (SPR, infection assays)
# B2: VHH 016 (2H11) (VHH)
# VHH: EVQLVESGGGLVQAGGSLRLSCAASGRTFAPGSMGWFRQAPGKEREFVAAHRWSGSAYYADYADSVEGRFTISRDYAKNMVYLQMNSLKPGDTAVYYCAAGVGSAAQYTYWGRGTQVTVSS
# notes: Llama single domain antibody; also called 77(#16); VHCDR3 77(#16); not shown: tags: c-myc tag in periplasmic extract (ELISA, FACS); FLAG and His tags in purified VHH (SPR, infection assays)
# B3: VHH 023 (4E10) (VHH)
# VHH: QVQLVESGGGLVQAGGSLRLSCVASSRTSSTYAMGWFRQGPGKERDFVAIISFGGTFYADSVKGRFTISRDNAKNTVYLQMNSLKPEDTAVYYCAAGRTLSKRADSYASWGQGTQVTVSS
# notes: Llama single domain antibody; also called 70(#23); VHCDR3 70(#23); not shown: tags: c-myc tag in periplasmic extract (ELISA, FACS); FLAG and His tags in purified VHH (SPR, infection assays)
# B4: VHH 015 (2G01) (VHH)
# VHH: QVQLVESGGGLVQAGDTLRLSCTASGRTFSSYSMGWFRQAPGKEREFVAAITWNGYITNYADSVKGRFTISRDNTKNTVFLQMNSLKPEETAVYYCAATTFSTTSPISRTYNYWGPGTQVTVSS
# notes: Llama single domain antibody; also called 150(#15); VHCDR3 150(#15); not shown: tags: c-myc tag in periplasmic extract (ELISA, FACS); FLAG and His tags in purified VHH (SPR, infection assays)
# B5: VHH 001 (1B02) (VHH)
# VHH: EVQLVESGGGLVQAGGSLSLSCAASGGTLAMYAMSWFRQAPGKDRKFVAAINTSGRYSRYADSVKGRFTISRDNAKNTATLQMNSLEPEDTAVYYCAATDKGNWALAMSYDYWGQGTQVTVSS
# notes: Llama single domain antibody; also called 144(#1); VHCDR3 144(#1); not shown: tags: c-myc tag in periplasmic extract (ELISA, FACS); FLAG and His tags in purified VHH (SPR, infection assays)
# B6: VHH 011 (2B06) (VHH)
# VHH: EVQLVESGGGLVQAGGSLRLSCAASGRTLSVYGTGWFRQAPGKEREFVAGISGTTGSTLYADSVKGRFTISRDNAKNTVYLQMNSLKSEDTALYYCAAGGRVYITTSSWAYWGQGTQVTVSS
# notes: Llama single domain antibody; also called 57(#11); VHCDR3 57(#11); not shown: tags: c-myc tag in periplasmic extract (ELISA, FACS); FLAG and His tags in purified VHH (SPR, infection assays)
# B7: VHH 017 (3D03) (VHH)
# VHH: QLQLVESGGGLVQPGGSLRLSCAASGFTLDDYTIGWFRQAPGKEREGVSCINSITSNTYYADSVKGRFTISRDNAKNTVYLQMNSLTAEDTAIYYCAADSGLFSGSSCLKYRAMRFGSWGQGTQVTVSS
# notes: Llama single domain antibody; also called 29(#17); VHCDR3 29(#17); not shown: tags: c-myc tag in periplasmic extract (ELISA, FACS); FLAG and His tags in purified VHH (SPR, infection assays)
# B8: VHH 018 (3E01) (VHH)
# VHH: QVQLQESGGGLVQVGGSLRLSCVASGRAPSRYVMGWFRQAPGQEREFVAGIAWSGRAPYADSVKGRSTISRDNAKNTVYLQMNSLKPEDTGVYYCAGGEGAIRWTTLDAYDYWGQGTQVTVSS
# notes: Llama single domain antibody; also called 49(#18); VHCDR3 49(#18); not shown: tags: c-myc tag in periplasmic extract (ELISA, FACS); FLAG and His tags in purified VHH (SPR, infection assays)
# B9: VHH 019 (3E11) (VHH)
# VHH: B8 VHH with G16S, A24T, A28T, G50A, A52S, S67F, R103K
# notes: Llama single domain antibody; also called 47(#19); VHCDR3 47(#19); not shown: tags: c-myc tag in periplasmic extract (ELISA, FACS); FLAG and His tags in purified VHH (SPR, infection assays)
# B10: VHH 020 (3H11) (VHH)
# VHH: B8 VHH with A28T, S67F, T68V, N73S, P87S, R103L, L107P, D108G, D111N
# notes: Llama single domain antibody; also called 48(#20); VHCDR3 48(#20); not shown: tags: c-myc tag in periplasmic extract (ELISA, FACS); FLAG and His tags in purified VHH (SPR, infection assays)
# B11: VHH 012 (2C07) (VHH)
# VHH: QLQLVESGGGLVQAGGSLRLSCVASGRTFSRYAMGWFRQAPGKEREFVAAIAWSTGSTYYANSVKGRFAISGDNAKNTVYLQMNSLKPEDTAVYYCAAETRYCSGFGCLDPRTYGSWGQGTQVTVSS
# notes: Llama single domain antibody; also called 41(#12); VHCDR3 41(#12); not shown: tags: c-myc tag in periplasmic extract (ELISA, FACS); FLAG and His tags in purified VHH (SPR, infection assays)
# B12: VHH 008 (1H01) (VHH)
# VHH: B1 VHH with L27R, V30G, A105E
# notes: Llama single domain antibody; also called 78(#8); VHCDR3 78(#8); not shown: tags: c-myc tag in periplasmic extract (ELISA, FACS); FLAG and His tags in purified VHH (SPR, infection assays)
# Biological target: T1, pCD163-SRCR1-9-huFc
# Experiment: SPR (Biacore 3000), antigen amine-coupled on CM5, VHH injected, pH 7.4
# Procedure: (§1) To assess the affinity of selected purified clones to pCD163, pCD163-SRCR1-9-huFc or pCD163-SRCR4-7-huFc proteins were coated by amine coupling on a CM5 sensor ship (GE Healthcare). Surface plasmon resonance (SPR) (Biacore 3000, GE Healthcare) was used to determine the binding kinetics of selected single domain antibodies at pH7.4. Approximately 2000 RU of pCD163-SRCR1-9-huFc or pCD163-SRCR4-7-huFc, proteins at 20 or 30 µg/ml in Acetate buffer pH 5.0 or pH 5.5 were immobilized onto a CM5 chip using the standard amine coupling procedure.
# (§2) 1x HBS-EP pH 7.4, were utilized as a running buffer during binding kinetic measurements. Purified VHH were injected at 3-fold dilution (300 nM; 100 nM; 33 nM; 11 nM; 3.7 nM; 1.2 nM; 0.4 nM; 0 nM), for 120 s, at a flow rate of 30 µl/min. RU levels were restored to base levels after regeneration with 10 µl of 10 mM NaOH / 1 M NaCl and 10 µl of 10 mM Glycine pH 1.5 between samples. Fitting 1:1 binding with mass transfer was applied to the set sample curves using the simultaneous fitting option of the BIAevaluation software to calculate the kinetic constants of the antibody-antigen interactions including association rate (ka), dissociation rate (kd) and affinity (KD). Curves were removed from the fitting after visual examination of the residuals and considering the value of Chi2: a minimum of 4 curves were considered for the simultaneous fitting.
Binder,Kd,koff,kon
B1,20 nM,0.0108 s⁻¹,539000 M⁻¹ s⁻¹
B2,44.3 nM,0.00972 s⁻¹,219000 M⁻¹ s⁻¹
B3,3.1 nM,0.00927 s⁻¹,2.99e+06 M⁻¹ s⁻¹
B4,14.7 nM,0.00583 s⁻¹,396000 M⁻¹ s⁻¹
B5,7.08 nM,0.0178 s⁻¹,2.52e+06 M⁻¹ s⁻¹
B6,71.4 nM,0.01 s⁻¹,140000 M⁻¹ s⁻¹
B7,75.2 nM,0.083 s⁻¹,1.1e+06 M⁻¹ s⁻¹
B8,16.5 nM,0.0134 s⁻¹,814000 M⁻¹ s⁻¹
B9,8.77 nM,0.0102 s⁻¹,1.16e+06 M⁻¹ s⁻¹
B10,9.15 nM,0.00865 s⁻¹,945000 M⁻¹ s⁻¹
B11,1.03 nM,0.00617 s⁻¹,5.97e+06 M⁻¹ s⁻¹

# Biological target: T1, pCD163-SRCR1-9-huFc
# Experiment: SPR; upper end of the range, tied by Table 7 to VHH 017 on pCD163:SRCR1-9-Fc (75.20)
# Procedure: as §1, §2
row,Binder,Kd
1,B7,1 to 75 nM

# Biological target: T1, pCD163-SRCR1-9-huFc
# Experiment: SPR; lower end of the range, tied by Table 7 to VHH 012 on pCD163:SRCR1-9-Fc (1.03)
# Procedure: as §1, §2
row,Binder,Kd
1,B11,1 to 75 nM

# Biological target: T2, pCD163-SRCR4-7-huFc (porcine, UniProt Q2VL90 372-818, limits assumed)
# T2 construct: also called pCD163:SRCR4-7-Fc; pCD163-SRCR4-7-Fc; not shown: human Fc (huFc)
# Experiment: ELISA, periplasmic extract on coated antigen
row,Binder,O.D. 450
1,B1,2.39 O.D. 450
2,B12,2.65 O.D. 450
3,B2,4.15 O.D. 450
4,B3,4.1 O.D. 450
5,B4,4.37 O.D. 450
6,B5,0.416 O.D. 450
7,B6,0.288 O.D. 450
8,B7,0.116 O.D. 450
9,B8,0.938 O.D. 450
10,B9,2.43 O.D. 450
11,B10,3.36 O.D. 450
12,B11,3.14 O.D. 450

# Biological target: T1, pCD163-SRCR1-9-huFc
# Experiment: ELISA, periplasmic extract on coated antigen
row,Binder,O.D. 450
1,B1,0.235 O.D. 450
2,B12,0.22 O.D. 450
3,B2,0.263 O.D. 450
4,B3,0.577 O.D. 450
5,B4,1.18 O.D. 450
6,B5,0.109 O.D. 450
7,B6,0.106 O.D. 450
8,B7,0.137 O.D. 450
9,B8,1.03 O.D. 450
10,B9,2.48 O.D. 450
11,B10,2.93 O.D. 450
12,B11,0.535 O.D. 450
